Results from patent publication US20130202598.

How the values were obtained:
[1] = tested on: PE-DTA-cleavage site-defensin (P6-P4' NS5A/B site of genotype 1b/1a)
[2] = tested on: PE-DTA-mutated cleavage site-defensin

Question: Which results are given for recombinant MBP-scNS3 fusion?
Answer: in vitro cleavage by NS3 (immunoblot with anti-PE antibodies) [1]: complete cleavage of the chimeric toxin; in vitro cleavage by NS3 (immunoblot with anti-PE antibodies) [2]: resistant to cleavage by NS3
